This note sets out measurements from patent US20240400640A1.

This assay addresses FcRn (human) (UniProt P55899). Description: Lumit FcRn binding immunoassay (competition); pH 6.0.

Chain of FcRn (human) (P55899 24-297, chain 1 of 2): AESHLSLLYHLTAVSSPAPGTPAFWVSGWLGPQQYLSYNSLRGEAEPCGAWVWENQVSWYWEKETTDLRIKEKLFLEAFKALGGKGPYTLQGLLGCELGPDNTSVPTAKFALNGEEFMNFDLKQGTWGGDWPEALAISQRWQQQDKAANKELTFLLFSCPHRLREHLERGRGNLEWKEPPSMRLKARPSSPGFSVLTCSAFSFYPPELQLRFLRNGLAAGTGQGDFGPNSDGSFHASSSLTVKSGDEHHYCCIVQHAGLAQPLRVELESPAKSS
Chain of FcRn (human) (main, as listed by the source, chain 2 of 2): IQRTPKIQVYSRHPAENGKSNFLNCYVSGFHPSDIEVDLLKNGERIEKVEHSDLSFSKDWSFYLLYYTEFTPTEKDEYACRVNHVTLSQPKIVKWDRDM

hIgG1 had a half-inhibitory concentration (IC50) of 12.8 nM. In other words, the double-digit nanomolar range.

A word on the IC50: it is the concentration needed to halve the response being measured. A low value points to higher potency.
